Experimental findings from US20220106400A1 (Bristol-Myers Squibb, published 2022) are described below.

Where a chain is given by its changes, count along the chain named. Bounds are passed on as bounds.

As usually defined, the Kd is the concentration at which binding is half-saturated.

One assay concerns the target T1, human GITR (human, UniProt Q9Y5U5 26-241).
T1 sequence (looked up): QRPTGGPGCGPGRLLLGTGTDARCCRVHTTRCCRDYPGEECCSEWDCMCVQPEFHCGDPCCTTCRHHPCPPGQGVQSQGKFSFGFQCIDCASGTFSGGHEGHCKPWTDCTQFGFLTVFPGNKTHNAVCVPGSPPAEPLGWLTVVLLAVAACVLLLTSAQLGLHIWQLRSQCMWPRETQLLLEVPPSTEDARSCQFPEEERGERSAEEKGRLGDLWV
Kind of assay: cell-based or functional assay.

The target of assay [1] is T2, hCD16b-NA2 (FcgRIIIb-NA2) (human, UniProt O75015 17-200, limits assumed).
T2 construct: not shown: C-terminal his-tag
T2 sequence (O75015 17-200 N65S limits assumed): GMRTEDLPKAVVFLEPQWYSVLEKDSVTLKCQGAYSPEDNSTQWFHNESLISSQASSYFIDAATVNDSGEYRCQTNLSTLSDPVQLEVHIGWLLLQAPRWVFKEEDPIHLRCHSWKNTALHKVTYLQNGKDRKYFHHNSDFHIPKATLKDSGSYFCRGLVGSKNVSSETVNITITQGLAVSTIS
Kind of assay: SPR, FcgR analyte titration on protein A captured dAb-Fc. As to the method: (§1) A second SPR assay for testing the interaction between antibodies or dAb-Fc proteins with FcgR proteins is a protein A capture method. These experiments are also performed on either a Biacore™ T100 or Biacore™ T200 instrument (GE Healthcare) at 25° C. For these studies, protein A is immobilized on flow cells 1-4 of a CM5 sensor chip using standard ethyl (dimethylaminopropyl) carbodiimide (EDC)/N-hydroxysuccinimide (NHS) chemistry, with ethanolamine blocking, in a running buffer of 10 mM HEPES pH 7.4, 150 mM NaCl, 3 mM EDTA, 0.05% surfactant p20, to a density of ˜3000 RU.
A general note: Surface plasmon resonance follows binding to a sensor surface in real time, without labels.

The next assay deals with T3, hCD32b (FcgRIIb) (human, UniProt P31994 46-217).
T3 construct: not shown: C-terminal his-tag
T3 sequence (looked up): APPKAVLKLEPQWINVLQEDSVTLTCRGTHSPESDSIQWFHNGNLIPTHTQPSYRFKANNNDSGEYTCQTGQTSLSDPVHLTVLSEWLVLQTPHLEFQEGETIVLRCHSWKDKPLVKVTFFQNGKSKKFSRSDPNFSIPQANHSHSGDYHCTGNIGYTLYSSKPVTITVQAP
The assay is described as above. As to the method: as §1

Assay [2] has as its target T4, hCD32a-H131 (FcgRIIa-H131) (human, UniProt P12318 36-218).
T4 construct: not shown: C-terminal his-tag
T4 sequence (looked up): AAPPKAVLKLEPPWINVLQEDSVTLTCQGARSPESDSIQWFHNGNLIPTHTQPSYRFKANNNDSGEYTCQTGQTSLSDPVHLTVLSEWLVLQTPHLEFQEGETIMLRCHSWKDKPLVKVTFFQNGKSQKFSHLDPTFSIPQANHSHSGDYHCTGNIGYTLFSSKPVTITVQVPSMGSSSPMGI
Described as above. As to the method: as §1

Assay [3] concerns the target T5, hCD32a-R131 (FcgRIIa-R131) (human, UniProt P12318 36-218).
T5 construct: not shown: C-terminal his-tag
T5 sequence (looked up): T4 sequence (looked up) with H132R
The assay is described as above. As to the method: as §1

Assay [4] addresses T6, hCD16a-V158 (FcgRIIIa-V158) (human, UniProt P08637 17-208).
T6 construct: not shown: C-terminal his-tag
Described as above. As to the method: as §1

The target in the next assay is T7, hCD40-Fc (human, UniProt P25942 21-193).
T7 construct: not shown: Fc part of hCD40-Fc, not described
T7 sequence (P25942 21-193): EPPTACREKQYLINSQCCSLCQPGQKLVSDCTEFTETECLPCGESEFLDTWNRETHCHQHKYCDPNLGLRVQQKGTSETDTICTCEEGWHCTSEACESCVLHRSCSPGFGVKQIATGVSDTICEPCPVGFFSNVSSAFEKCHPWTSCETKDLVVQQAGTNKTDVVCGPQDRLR
Kind of assay: SPR, immobilized hCD40-Fc, dAb-Fc analyte (avidity).

T6 sequence (P08637 17-208 F176V limits assumed): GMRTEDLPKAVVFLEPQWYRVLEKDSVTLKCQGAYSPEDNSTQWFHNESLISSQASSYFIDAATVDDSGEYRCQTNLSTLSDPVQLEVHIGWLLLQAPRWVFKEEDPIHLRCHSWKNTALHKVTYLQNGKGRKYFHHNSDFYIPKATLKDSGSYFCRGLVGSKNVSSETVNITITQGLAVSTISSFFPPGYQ

B1: GITR.6.G2 (antibody, human IgG2, kappa)
heavy: QVQLVESGGGVVQPGRSLRLSCAASGFTFSSYGMHWVRQAPGKGLEWVAVIWYEGSNKYYADSVKGRFTISRDNSKNTLYLQMNSLRAEDTAVYYCARGGSMVRGDYYYGMDVWGQGTTVTVSSASTKGPSVFPLAPCSRSTSESTAALGCLVKDYFPEPVTVSWNSGALTSGVHTFPAVLQSSGLYSLSSVVTVPSSNFGTQTYTCNVDHKPSNTKVDKTVERKCCVECPPCPAPPVAGPSVFLFPPKPKDTLMISRTPEVTCVVVDVSHEDPEVQFNWYVDGVEVHNAKTKPREEQFNSTFRVVSVLTVVHQDWLNGKEYKCKVSNKGLPAPIEKTISKTKGQPREPQVYTLPPSREEMTKNQVSLTCLVKGFYPSDIAVEWESNGQPENNYKTTPPMLDSDGSFFLYSKLTVDKSRWQQGNVFSCSVMHEALHNHYTQKSLSLSPGK
light: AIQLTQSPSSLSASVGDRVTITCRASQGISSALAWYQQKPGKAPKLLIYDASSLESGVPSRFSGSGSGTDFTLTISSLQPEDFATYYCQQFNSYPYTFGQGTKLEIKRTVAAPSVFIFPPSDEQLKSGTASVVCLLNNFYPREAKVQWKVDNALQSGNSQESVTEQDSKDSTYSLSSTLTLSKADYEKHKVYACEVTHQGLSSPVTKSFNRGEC
Consider B1, for which, in the assay with human GITR, the “NFKB signaling in TCR activated CD4+ T cells, EC50” value was found to be 0.0128 µM; the “NFKB signaling in TCR activated CD4+ T cells, Emax” value came to 69%; the “NFKB signaling in TCR activated CD8+ T cells, EC50” value turned out to be 0.009 µM; the “NFKB signaling in TCR activated CD8+ T cells, Emax” value turned out to be 85%.

B2: 3h56-269-IgG1.1f (Fc fusion)
chain: EVQLLESGGGLVQPGGSLRLSCAASGFTFRDYEMWWVRQAPGKGLERVSAINPQGTRTYYADSVKGRFTISRDNSKNTLYLQMNSLRAEDTAVYYCAKLPFRFSDRGQGTLVTVSSASTEPKSCDKTHTCPPCPAPEAEGAPSVFLFPPKPKDTLMISRTPEVTCVVVDVSHEDPEVKFNWYVDGVEVHNAKTKPREEQYNSTYRVVSVLTVLHQDWLNGKEYKCKVSNKALPSSIEKTISKAKGQPREPQVYTLPPSREEMTKNQVSLTCLVKGFYPSDIAVEWESNGQPENNYKTTPPVLDSDGSFFLYSKLTVDKSRWQQGNVFSCSVMHEALHNHYTQKSLSLSPGK
notes: anti-CD40 dAb-Fc
With B2, the Kd (in assay [1]; with hCD32b (FcgRIIb); in assay [2]; in assay [3]; in assay [4]) was above 5 µM in each case.

B3: 3h56-269-IgG1.3f (Fc fusion)
chain: B2 chain with S234A, S235P
notes: dAb-Fc fusion protein
Take B3: in the assay with hCD40-Fc, the KDapparent is below 1 nM.

B4: 3h56-269-IgG1.1f (Fc fusion)
chain: B2 chain
notes: dAb-Fc fusion protein
Regarding B4, in the assay with hCD40-Fc, the KDapparent is below 1 nM.
